Measured values from FireProtDB (doi:10.1021/bi048926x).
“And” between values parts separate entries of the source, which are not always exact repeats. Equal entries are not always repeated.

Settings: Pseudomonas aeruginosa (strain ATCC 15692 / DSM 22644 / CIP 104116 / JCM 14847 / LMG 12228 / 1C / PRS 101 / PAO1), pH 7, Thermal, reversible: No, whole UniProt chain shown

B1: Azurin wild type, P00282 (protein)
chain: MLRKLAAVSLLSLLSAPLLAAECSVDIQGNDQMQFNTNAITVDKSCKQFTVNLSHPGNLPKNVMGHNWVLSTAADMQGVVTDGMASGLDKDYLKPDDSRVIAHTKLIGSGEKDSVTFDVSKLKEGEQYMFFCTFPGHSALMKGTLTLK
Q: For B1, which Tm (Absorbance, Phosphate 10 mM) is on record?
A: 78 °C

Q: What about the “unfolding enthalpy (calorimetric)” value (DSC, Potassium phosphate 100 mM) of the same protein?
A: 141 kcal/mol and 130 kcal/mol and 136 kcal/mol
